# Laboratory results: the RNAGym collection of RNA variant scans (doi:10.7554/elife.90254)
# B1: LINE1-mini (parent)
# chain: GGCAGAGCUCAACACAGCGUGGCAAAGUGGCUGUGGCUAGACUGCC
# Variants of: B1
# Test: self-cleavage, relative activity (ratio to wild type); higher = more cleavage; in vitro, sequencing; the parent is a self-cleaving ribozyme
row,Variant,self-cleavage
1,GGCCGAGCUCAACACAGCGUGGCAAGGUGGCUGUGGCUAGACUGCC [A4C A26G],0.15
2,GGCCGAGCUCAACACAGCGUGGCAAUGUGGCUGUGGCUAGACUGCC [A4C A26U],0.11
3,GGCCGAGCUCAACACAGCGUGGCAACGUGGCUGUGGCUAGACUGCC [A4C A26C],0.1
4,GGCCGAGCUCCACACAGCGUGGCAAAGUGGCUGUGGCUAGACUGCC [A4C A11C],0.04
5,GGCCGAGCUCUACACAGCGUGGCAAAGUGGCUGUGGCUAGACUGCC [A4C A11U],0.04
6,GGCCGAGCUCGACACAGCGUGGCAAAGUGGCUGUGGCUAGACUGCC [A4C A11G],0.04
7,GGUAGAGCUCAACACAGCGAGGCAAAGUGGCUGUGGCUAGACUGCC [C3U U20A],0.28
8,GGUAGAGCUCAACACAGCGCGGCAAAGUGGCUGUGGCUAGACUGCC [C3U U20C],0.15
9,GGUAGAGCUCAACACAGCGGGGCAAAGUGGCUGUGGCUAGACUGCC [C3U U20G],0.28
10,GGUAGAGCCCAACACAGCGUGGCAAAGUGGCUGUGGCUAGACUGCC [C3U U9C],0.07
11,GGUAGAGCGCAACACAGCGUGGCAAAGUGGCUGUGGCUAGACUGCC [C3U U9G],0.15
12,GGUAGAGCACAACACAGCGUGGCAAAGUGGCUGUGGCUAGACUGCC [C3U U9A],0.29
13,GGCCGUGCUCAACACAGCGUGGCAAAGUGGCUGUGGCUAGACUGCC [A4C A6U],0.11
14,GGCCGCGCUCAACACAGCGUGGCAAAGUGGCUGUGGCUAGACUGCC [A4C A6C],0.09
15,GGCCGGGCUCAACACAGCGUGGCAAAGUGGCUGUGGCUAGACUGCC [A4C A6G],0.37
16,GGUAGAGCUCAACACAGCGUGGCAAAGUGGCUGUGGCUAGACUUCC [C3U G44U],0.23
17,GGUAGAGCUCAACACAGCGUGGCAAAGUGGCUGUGGCUAGACUACC [C3U G44A],1.07
18,GGUAGAGCUCAACACAGCGUGGCAAAGUGGCUGUGGCUAGACUCCC [C3U G44C],0.35
19,GGCCGAGAUCAACACAGCGUGGCAAAGUGGCUGUGGCUAGACUGCC [A4C C8A],0.32

row,Variant,self-cleavage
1,GGCCGAGCUCAACACAGCGUGGCAAAGUGGCUGUGGCUGGACUGCC [A4C A39G],0.9
2,GGCCGAGCUCAACACAGCGUGGCAAAGUGGCUGUGGCUCGACUGCC [A4C A39C],0.07
3,GGCCGAGCUCAACACAGCGUGGCAAAGUGGCUGUGGCUUGACUGCC [A4C A39U],0.09
4,GGCCGAGCUCAGCACAGCGUGGCAAAGUGGCUGUGGCUAGACUGCC [A4C A12G],0.06
5,GGCCGAGCUCAUCACAGCGUGGCAAAGUGGCUGUGGCUAGACUGCC [A4C A12U],0.17
6,GGCCGAGCUCACCACAGCGUGGCAAAGUGGCUGUGGCUAGACUGCC [A4C A12C],0.03
7,GGCCGAGCUCAACACAGCGUGGCAAAGUGGCUGUGGCUAGGCUGCC [A4C A41G],0.07
8,GGCCGAGCUCAACACAGCGUGGCAAAGUGGCUGUGGCUAGCCUGCC [A4C A41C],0.12
9,GGCCGAGCUCAACACAGCGUGGCAAAGUGGCUGUGGCUAGUCUGCC [A4C A41U],0.23
10,GGUAGAGCUCAACACAGCGUGGCAAAGUGGCUGUGGCGAGACUGCC [C3U U38G],0.04
11,GGUAGAGCUCAACACAGCGUGGCAAAGUGGCUGUGGCAAGACUGCC [C3U U38A],0.19
12,GGUAGAGCUCAACACAGCGUGGCAAAGUGGCUGUGGCCAGACUGCC [C3U U38C],0.19
13,GGCCGAGCUCAACGCAGCGUGGCAAAGUGGCUGUGGCUAGACUGCC [A4C A14G],0.1
14,GGCCGAGCUCAACUCAGCGUGGCAAAGUGGCUGUGGCUAGACUGCC [A4C A14U],0.22
15,GGCCGAGCUCAACCCAGCGUGGCAAAGUGGCUGUGGCUAGACUGCC [A4C A14C],0.1
16,GGCCGAGCUCAACACAGCGUGGCAAAGUGGCUGUGGCUAGACUGCC [A4C],0.19
17,GGCCGAGCUCAACACAGCGUGGCAUAGUGGCUGUGGCUAGACUGCC [A4C A25U],0.13
18,GGCCGAGCUCAACACAGCGUGGCACAGUGGCUGUGGCUAGACUGCC [A4C A25C],0.06
19,GGCCGAGCUCAACACAGCGUGGCAGAGUGGCUGUGGCUAGACUGCC [A4C A25G],0.12

row,Variant,self-cleavage
1,GGCCGAGCUCAACACGGCGUGGCAAAGUGGCUGUGGCUAGACUGCC [A4C A16G],0.09
2,GGCCGAGCUCAACACUGCGUGGCAAAGUGGCUGUGGCUAGACUGCC [A4C A16U],0.05
3,GGCCGAGCUCAACACCGCGUGGCAAAGUGGCUGUGGCUAGACUGCC [A4C A16C],0.04
4,GGUAGAGCUCAACACAGCGUGGCAAAGUGGCUGUGGCUAGACCGCC [C3U U43C],0.09
5,GGUAGAGCUCAACACAGCGUGGCAAAGUGGCUGUGGCUAGACAGCC [C3U U43A],0.14
6,GGUAGAGCUCAACACAGCGUGGCAAAGUGGCUGUGGCUAGACGGCC [C3U U43G],0.2
7,GGUAGAGCUCAACACAGCGUGGCAAAGUGGCUGGGGCUAGACUGCC [C3U U34G],0.07
8,GGUAGAGCUCAACACAGCGUGGCAAAGUGGCUGCGGCUAGACUGCC [C3U U34C],0.07
9,GGUAGAGCUCAACACAGCGUGGCAAAGUGGCUGAGGCUAGACUGCC [C3U U34A],0.06
10,GGCCGAGCUCAACACAGCGUGGCGAAGUGGCUGUGGCUAGACUGCC [A4C A24G],0.14
11,GGCCGAGCUCAACACAGCGUGGCUAAGUGGCUGUGGCUAGACUGCC [A4C A24U],0.17
12,GGCCGAGCUCAACACAGCGUGGCCAAGUGGCUGUGGCUAGACUGCC [A4C A24C],0.09
13,GGUAGAGCUCAACACAGCGUGGCAAAGUGGCGGUGGCUAGACUGCC [C3U U32G],0.09
14,GGUAGAGCUCAACACAGCGUGGCAAAGUGGCCGUGGCUAGACUGCC [C3U U32C],0.19
15,GGUAGAGCUCAACACAGCGUGGCAAAGUGGCAGUGGCUAGACUGCC [C3U U32A],0.07
16,GGUAGAGCUCAACACAGCGUGGCAAAGCGGCUGUGGCUAGACUGCC [C3U U28C],0.24
17,GGUAGAGCUCAACACAGCGUGGCAAAGAGGCUGUGGCUAGACUGCC [C3U U28A],0.4
18,GGUAGAGCUCAACACAGCGUGGCAAAGGGGCUGUGGCUAGACUGCC [C3U U28G],0.23
